# Experimental data from the DeepSol protein solubility set.
# Test: soluble on expression in E. coli; label from the status in PepcDB or PDB records
row,Sequence,soluble on expression in E. coli
1,MGIKGLSQVIADNAPSAIKVNEMKAFFGRTVAIDASMCLYQFLIAVRQDGSQLQSEDGETTSHLMGMLNRTVRMFENGVKPVYVFDGKPPDMKGGELEKRSERRAEAEKALTEAKEKGDVKEAEKFERRLVKVTKQQNDEAKRLLGLMGIPVVEAPCEAEAQCAHLVKAGKVFGTVTEDMDALTFGSTVLLRHFLAPVAKKIPIKEFNLSLALEEMKLSVEEFIDLCILLGCDYCGTIRGVGPKKAVELIRQHKNIETILENIDQNKYPPPEDWPYKRARELFLNPEVTKPEEVELTWKEADVEGVIQFLCGEKNFNEERIRNALAKLKTSRKSGTQGRIDSFFGNSTKVTCVTAATKRKAEEAEKAKKGAKKGGPPKKRAK,not soluble
2,MTRVRDLMSTHIVHCTPLDNVYEAAVKMKEESIGLIPVVENEQVVGLVTDRDLVVRGIAEKHPGSNKITNVMTTNIISVSPNDSIEKATELMAQHQIRRLPVVDSGQLIGMLALGDLAIRESADDQAGFALSEISERTE,not soluble
3,MWRLRMSLGISEAFDLRPDYIISVIKDTRAKLVGFQFPEGLKRKGPELAKKVEKATGAEIIISGDPCFGACDLDRTLLDHVDILFHFGHAELEDIRLSNKVYFIETRSSVDVLHVIEKAVPELKGQKIGLITTVQHVHKLPDVCGVLERMGKTCVIGRGDSRIAYAGQVLGCNFSAARDEDCDEYLYIGSGDFHPLGVALSTKKRVLAADPFSGEVREVDPSRILRQRSAVIAKSLDAQVFGIIVSSKNGQKRMELASSLKELAKKHGKESHLILIDLVTPDQLLQFKVDAFVNTACPRLAIDEVGRFPAPMLTPQEFEIVLGEREWEKLVLDEITEEPVLEHHHHHH,not soluble
4,MTEDQVEILEYNFNKVNKHPDPTTLCLIAAEAGLTEEQTQKWFKQRLAEWRRSEGLPSECRSVTD,soluble
5,MVLNIKRASSLDGATINVQDVLKPFDHQVGGHTPFTSLPNGHLLKPCEEREILFYQKMPKILKSIAPLCCSTIQGSSVSTLDDSCSNCRHHQLENVVIPESIEGSPILNKRKLSKNFIVLSDLTYRMKSPRILDLKLGTRQHGDQATVSKIACMTAKCQATTSATLGIRLCGMKIPFLEQNSQNFAPNFAPNSAAPNFAPKSEISINKYMGRSMDKTDLFLAVKQFFDVPEAVLEEVERRLLGIRDVLCGADGVRLFGASLLIVIESNFSDSQLPIDNLVRIKVVDFANATFGGLQGDSFYDGRDDGSILGLETLLEIVKGKN,not soluble
6,MVLDNLGKALANTLKKIARASSVDEALIKELVRDIQRALIQADVNVRLVLQLTREIQRRALEEKPPAGISKKEHIIKIVYEELTKFLGTEAKPIEIKEKPTILLMVGIQGSGKTTTVAKLARYFQKRGYKVGVVCSDTWRPGAYHQLRQLLDRYHIEVFGNPQEKDAIKLAKEGVDYFKSKGVDIIIVDTAGRHKEDKALIEEMKQISNVIHPHEVILVIDGTIGQQAYNQALAFKEATPIGSIIVTKLDGSAKGGGALSAVAATGAPIKFIGTGEKIDDIEPFDPPRFVSRLLGLGDIQGLLEKFKELEKEVEIKEEDIERFLRGKFTLKDMYAQLEAMRKMGPLKQILRMIPGLGYSLPDDVISIGEERLKKFKVIMDSMTEEELLNPEIINYSRIKRIARGSGTSTKDVKELLDQYRQMKKLFKSMNKRQLSRLARRFGM,soluble
7,MSLKPWLLMMLTTLLVGCGGTPQPKVSFYLLPNNPELSEHIQPKTLPLLVVQPVELAAYLDTQGIVYRQSETQVIQARQNQWAQRLSPQLTQRITNDLRRKQSRYWPAPLNASSIQQEHWKLQVRLQRFNGVYTGNAEVAGNWELLNPKGESMLNQEFSFQVPLKDTGYPALVEALSAGVDQLSTQIETQLVTREGHHHHHH,soluble
8,GMRKDDVVIVTCAITGAIHTPSMSPYLPVTPDQIVEEAVKAAEAGAGMVHIHARDPKDGRPTTDVEVFRYICREIKKQSDVVINVTTGGGGTLGIPVEERAKVVPALKPEIATFNMGSMNFAIHPLLKKYKEFKYDWEPEYLEMTRDIVFRNTFKDLEALSRIFKENDTKPELECYDIGQIYNTAFMFHEGYLEPPLRLQFIHGILGGIGTAVEDVLFMKQTADRLIGRENYTWSLVGAGRFQMPLGTLAVIMGGDVRVGLEDSLYIERGKLAKSNAEQVEKMVRIVKELGKRPATPDEVREILGLKGKERVNF,soluble
9,MANKLTILASVVAASTAMMATSAQAADTTLDKVTKQGFLTCGVSTGLPGFSNPNSKGEWEGIDVEYCQALAAAVLGDKTKVKYVPLTAKERFTALQSGEIDVLSRNTTWTLHRDTALGLNFVGVNYYDGQGFMVKKDLGISSAKELDGASVCVQSGTTTELNLADYFRNSGMSYKPVVFDTAAQTSKGFDAGRCDVLTTDQSGLYALRLNLKDPSSAAVLPEIISKEPLGPVVRQGDDQWFNIAKWTLAAMVNAEEYGITSKNADEMLKSQDPNIKRILGVDGPKGKGLGIRDDWGYQVVKQVGNYGESFERTVGKGSPLEIARGVNALWNAGGFMYAPPIR,not soluble
10,MEAYLKKLCFEYQVEEKEVKELLARMERVYLDKGETIASATMPEQSLYIIVSGILHTFTTQQGEDKTVRFLSEGDAILCYNTSKHSVKTLTRCVAYYISEDEIEELCATSITFSNLIRQMMEYQFYLKEEMSVNARKLTIRERYLSLLSEIPDILYRVPLKYITYYLGADVTSLGYLAGSCK,not soluble
11,MAHHHHHHMNTHVISVGSRWVHHEVTQALRQRRGVRVEVNEELQHCDFASRASSVLYCDAHSAEMQRDQASLVLRLQEARQRCGTQPVILMVRMDSDNEVSLERLSWLNLECGVAQQCGLILVWSLDDAVQYLASLAAYAVTSLEFTGAARPYVGDAPLPVLVDALTQTPQVVTRNDVVRIANRKTSVADALMSEASEWEGIAGLDARKRLVCSTSFAHHLCPRSSASTPLYRPPAAAVSLPLIKPQNLISRSQQESPQRGRQRPLASTRP,not soluble
12,KVKELTILYRGSTAPTLASGLTPFHKDSLDVWTDWGVNDIPTAIQITNGGGSTVTPQLKTSAETLKQTMKLYPNAQIYVYGHSLGSMNAQYAIADLDKKDIKRISGGFFYQGPNIYSNLTPKQQDTVKAINALDRLFNFIDRKDYVAIGYGTGDPTIGHLIEVESKKAGLV,not soluble
13,MAHHHHHHMGTLEAQTQGPGSMKLAINGFGRIGRNVFKIAFERGIDIVAINDLTDPKTLAHLLKYDSTFGVYNKKVESRDGAIVVDGREIKIIAERDPKNLPWAKLGIDVVIESTGVFSSATSDKGGYLDHVNHAGAKKVILTVPAKDEIKTIVLGVNDHDINSDLKAVSNASCTTNCLAPLAKVLHESFGIEQGLMTTVHAYTNDQRILDLPHSDLRRARAAALSIIPTSTGAAKAVGLVLPELKGKLNGTSMRVPVPTGSIVDLTVQLKKKDVTKEEINSVLRKASETPELKGILGYTEDPIVSSDIKGNSHSSIVDGLETMVLENGFAKILSWYDNEFGYSTRVVDLAQKLVK,soluble
14,MRAPFISSLVKTLVHTDYDTSTGEVRSRRATGFVVGLTGEWGLGKSSVLNLLEHDLKQMEHVAVATLNPWLFKGRDEVVEAYFNALREALGFSSSEKARKLLVHLARYKASIEFVGATTAVVIDFVVGTGSATAIWKKWVLKVVRFLSKSRGLSANEERKNLEAKLAEAKIAIVMLIDELDRVEDEEVRVVAQLVKAVGDIKGISYLVAYDPSRVAQALGKGSTPEEKQKAGESYLEKIIQFPIPLRPLFMDEARDLLLQAMRNNDVTMPAESQSYQTEILNQLLRVIRTPREIKRLIGAFAVLEEIVRGLEHHHHHH,soluble
15,MPSSKTSARRAPSSPGASLWSLPLIRKLCCAPGCEELAPAGQAHCADHAAEAEARARSRKARAKAGAAAQAGAAFYATGRWRRARARFLAAHPLCADCAGLGLVVAAAEVDHIRPHRGDPGLMWDRANWQPLCRPCHSRKTAREVFHPPGGIAKSEGSARLEHHHHHH,not soluble
16,MGGPEKNSTVPLPNKKRKKKTNKKKPTAPNTPTSPQAGEKNANLKNGTVTTNGSNHVERLAGRAVHSLSAIDYSGITNDVEAGGSFSLTDVFPTVIFMFVVLFCRWLNGFSQHRERLYKFEDEAVQRRRRFRVHSEESEELNDHESYSETDICTQLLASSADVTCHINVDLVNQNRFYFFVKQRNKKENSTNEEEEISSQEINTSTQNEETEVNLVFASAEDNGGVASNFDISDALMVTSNISEVSKLPETLCEEGETVQQKSVVNENDHSNEDDEQSLQSQDGSRCSDEDMNSCVSASDEEDVESQDDSFHVNDATEESIDSVSSIESQEAEESATEDLASCHSNDDKNEKDVLVDEDTSKYDNLPVEMRSAKEGEESEGTIDSSVSSSTSSSSTGDDGDDSATSYDSEDIEIQMFEYDLGTACASASISIPRPSIIPRNNKKTEVNANEERLDDLSVSPGRSDSPGGGGGGHSDSFQDPMDPGEQLGSDDEEQEDPRDYKRGGYHPVNIGDVFNARYHVIRKLGWGHFSTVWLAWDTQDKRFVAMKIVKSAEHYTEAALDEIKLLLSVRSADPNDIGCHKVVQLLDEFTVTGINGQHVAMVFEVLGCNLLKLIIRSNYRGLHLEQVRKICRQVLEALGYMHEKCGIIHTDIKPENVLITMSREEIKIMAQHAVVARKMNMKMSGSAVSTAPDHLVKMAQENMTKNKKKKMKKKAKKQREKLEAELAGLEGLKMDANGLQEAYNNAPELENFNASQVEDVTMEDTVNENGNRNKVEIRSPDRFDRTTLTPFSDPESKFGDLASPSAEYLSSPMSQLPPGGILPAPPVGPNIGDPYCDIDVKIADLGNACWVNHHYTDDIQTRQYRALEVLIGSGYGPPADIWSTACMAFELATGDYLFEPHQGDNYSRDEDHLAHISELLGAIPPSIYKKGKHWREFFHKNGHLLHIHQLKPWSLYEVLRQKYEWSHEDAQQFESFLRPMLDFDQEKRSTAKIALKHPFLLPFGGRAPKSDCPPELLSKMFPDGLIPEPFDGNEHQEVYRDENDSRSASERSANSRSAGGSDDDDEEEFNMNRPGPSGHFPIFCSRVFTFMF,soluble
17,MGSDKIHHHHHHMSKRLLLFDFDETYFKHNTNEEDLSHLREMEKLLEKLTNNNEVITAVLTGSTFQSVMDKMDQVNMTFKPLHIFSDLSSKMFTWNNGEYVESETYKKKVLSEPFLFEDIEDILRHISAQYNVEFIPQRAFEGNETHYNFYFHSTGNHNNDSRILEALVRYANDQNYTARFSRSNPLAGDPENAYDIDFTPSNAGKLYATQFLMKKYNIPVKSILGFGDSGNDEAYLSYLEHAYLMSNSRDEALKQKFRLTKYPYYQGITLHVKEFVEGKYDY,not soluble
18,MELISIIVPVYNGEIYIGRCLDSILEQTYQNLEIIIIDDGSSDRTGDICEKYFLEDRRIKYFYQENRGQSVARNNGVLRCTGDWIAFLDSDDVYLPYSIEVMYNIQKATNADIVLTSIGNFNNTYNTSINSQYLKEIKLYTLEVALEEMYYGKTYGVSPLAKLYPRSNLLSNPYPEGKIHEDMDTTFKLISCASKIAVCDIVTAVVYFSDNSTTRTKFNERMLYFFEAIQNNIVFINLNFPHNTSLISAVIYNEVFGGIDICGKMIDFKLYDTVDYYRKKYRKYFKTILFNNRISVKEKVKYILFISSIRYFTIVRKIYNLRLSRNGLEHHHHHH,not soluble
19,MDRPSRITRFFMGIVSWAERLNLKYAKLGNPPVYDNATFPWSAEIEKEWPAIRKELDKILLRQSKLPSFQDISTDVKTISTDNRWKTFFLLGFGVKSEQNIKACPETWRIVNKIPGLTTAMFSIFEPGKHLPPHRGPYNGVLRLHLGLIVPEPNDHWRSAWTARSATGTKARCLEHHHHHH,not soluble
20,PQEKVSRIHASSGTTGRPTVVGYTTGDLNNWADLVARSLRAGGVKPTDKVHVAYGYGLFTGGLGAHYGAERLGCTVIPMSGGMTDRQIQLIEDFEPDAIMVTPSYMLTIVDAMIKKGIDPSKTSLRTGVFGAEPWTEEMRTELEKQLNMDAVDIYGLSEVMGPGVAMECVDTKDGLHI,not soluble
21,MKVTDVRLRKIQTDGRMKALVSITLDEAFVIHDLRVIEGNSGLFVAMPSKRTPDGEFRDIAHPINSDMRQEIQDAVMKVYDETDEVIPDKNATSDNEESDEA,soluble
